Reference: patent US20260034230A1 (Regeneron, published 2026)

Tests used:
[1] = molecular target: T1, REGN2431 (hmm.hTfRC): monomeric human Tfrc ectodomain (C89-F760) with N-terminal hexahistidine-myc-myc tag (human, UniProt P02786 89-760); assay: SPR Biacore, IgG captured by anti-hFc, 25 C
T1 construct: also called hmm.hTfR(C89-F763); hTFR-mmh
Method: (§1) Biacore binding kinetics assays were conducted for the interaction of 32 anti-human TfR IgG1 monoclonal antibodies from CHO supernatants with TfR reagents at 25° C.
(§2) Equilibrium dissociation constants (KD) for the interaction of anti-TfR monoclonal antibodies with human and fascicularis monkey TfR ecto domain recombinant proteins were determined using a real-time surface plasmon resonance (SPR) based Biacore S200 biosensor. All binding studies were performed in 10 mM HEPES, 150 mM NaCl, 3 mM EDTA, and 0.05% v/v surfactant Tween-20, pH 7.4 (HBS-EP) running buffer at […]. The Biacore CM5 sensor surface was first derivatized by amine coupling with a monoclonal mouse anti-human Fc antibody (REGN2567) followed by a step to capture anti-TfR monoclonal antibodies in CHO conditioned media. […] The dissociation of TfR bound to anti-TfR monoclonal antibodies was monitored for 3 minutes in HBS-EP running buffer. At the end of each cycle, the anti-TfR monoclonal antibodies capture surface was regenerated using a 12-see injection of 20 mM H₃PO₄. The association rate (ka) and dissociation rate (kd) were determined by fitting the real-time binding sensorgrams to a 1:1 binding model with mass transport limitation using Scrubber 2.0c software. The dissociation equilibrium constant (KD) and dissociative half-life (t %) were calculated from the kinetic rate constants as: […]

[2] = molecular target: T2, REGN2054 (mf TFRC ecto-mmh): monomeric monkey (cyno) Tfrc ectodomain (C89-F760) with C-terminal … (monkey (cyno, Macaca fascicularis), UniProt H9EXL1 89-760); assay: SPR Biacore, IgG captured by anti-hFc, 25 C
T2 construct: range 89-760; also called mfTFR-mmh; mfTfR-mmh
Method: as §1, §2

T1 sequence (P02786 other isoform, or with tags, fused parts or gaps): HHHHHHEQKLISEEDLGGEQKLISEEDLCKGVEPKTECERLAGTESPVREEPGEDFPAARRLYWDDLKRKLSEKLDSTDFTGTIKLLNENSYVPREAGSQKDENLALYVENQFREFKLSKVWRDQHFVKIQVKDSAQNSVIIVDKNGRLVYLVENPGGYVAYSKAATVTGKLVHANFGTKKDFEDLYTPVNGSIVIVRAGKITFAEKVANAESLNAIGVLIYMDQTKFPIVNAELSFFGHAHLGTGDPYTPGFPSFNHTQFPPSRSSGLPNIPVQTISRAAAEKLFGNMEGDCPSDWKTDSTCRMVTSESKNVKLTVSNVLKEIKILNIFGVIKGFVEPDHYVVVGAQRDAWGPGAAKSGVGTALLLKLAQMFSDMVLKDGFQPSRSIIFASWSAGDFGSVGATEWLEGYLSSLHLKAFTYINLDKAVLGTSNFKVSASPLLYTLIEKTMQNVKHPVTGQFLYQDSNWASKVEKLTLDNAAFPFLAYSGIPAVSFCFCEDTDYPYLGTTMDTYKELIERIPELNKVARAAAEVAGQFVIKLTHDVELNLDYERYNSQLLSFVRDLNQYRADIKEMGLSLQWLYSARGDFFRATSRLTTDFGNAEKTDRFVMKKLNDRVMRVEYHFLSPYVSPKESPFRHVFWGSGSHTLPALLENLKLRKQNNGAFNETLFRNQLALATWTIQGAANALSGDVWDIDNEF
T2 sequence (chain, as listed by the source): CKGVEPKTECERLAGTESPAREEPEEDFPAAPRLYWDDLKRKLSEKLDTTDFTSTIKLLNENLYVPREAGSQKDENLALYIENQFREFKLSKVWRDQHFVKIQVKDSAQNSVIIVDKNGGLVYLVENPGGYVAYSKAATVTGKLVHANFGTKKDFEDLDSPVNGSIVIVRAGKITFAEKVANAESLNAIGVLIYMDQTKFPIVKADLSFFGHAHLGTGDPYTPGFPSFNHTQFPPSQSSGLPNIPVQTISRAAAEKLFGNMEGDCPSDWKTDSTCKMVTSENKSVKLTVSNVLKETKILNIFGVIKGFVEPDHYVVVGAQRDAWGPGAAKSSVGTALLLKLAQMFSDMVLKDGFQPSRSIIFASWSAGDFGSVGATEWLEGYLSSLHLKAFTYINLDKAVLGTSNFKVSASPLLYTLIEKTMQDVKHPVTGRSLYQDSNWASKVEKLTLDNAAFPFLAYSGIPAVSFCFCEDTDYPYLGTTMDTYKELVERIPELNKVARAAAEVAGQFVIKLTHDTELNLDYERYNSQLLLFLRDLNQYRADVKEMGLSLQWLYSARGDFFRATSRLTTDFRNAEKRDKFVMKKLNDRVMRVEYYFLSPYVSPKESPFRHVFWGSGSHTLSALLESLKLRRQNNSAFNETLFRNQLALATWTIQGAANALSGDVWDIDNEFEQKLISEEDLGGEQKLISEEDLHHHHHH

| Binder | t1/2 [1] | t1/2 [2] |
| --- | --- | --- |
| 12841B anti-hTfR monoclonal antibody (bivalent IgG1) (antibody, V domains shown, hIgG1/kappa; also called H1H12841B; REGN17511) VH: EVQLVESGGGLVQPGGSLRLSCAASGFTFSNYWMNWVRQAPGKGLEWVANIKEDGGKKLYVDSVKGRFTISRDNAKNSLFLQMNSLRAEDTAVYYCAREDTTLVVDYYYYGMDVWGQGTTVTVSS VL: not shown | 99.8 min |  |
| 12839B anti-hTfR monoclonal antibody (bivalent IgG1) (antibody, V domains shown, hIgG1/kappa; also called H1H12839B; REGN17510) VH: QVQLVESGGGVVQPGRSLRLSCAASGFPFSNYVMYWVRQAPGKGLEWVALIFFDGKKNYHADSVKGRFTITRDNSKNMLYLQMNSLRPEDAAVYYCAKIHCPNGVCYKGYYGMDVWGQGTTVTVSS VL: not shown | 217 min |  |
| 12834B anti-hTfR monoclonal antibody (bivalent IgG1) (antibody, V domains shown, hIgG1/kappa) VH: QVQLVQSGAEVKKPGASVKVSCKASGYTFTSYGISWVRQAPGQGLEWMGWISVYHGNTNYAQKFQGRVTMTTDTSTSTAYMELRSLRSDDTAVYYCAREGYYDFWSGYYPFDYWGQGTLVTVSS VL: not shown | 2.6 min |  |
| 12799B anti-hTfR monoclonal antibody (bivalent IgG1) (antibody, V domains shown, hIgG1/kappa; also called H1H12799B; REGN17508) VH: QITLKESGPTLVKPTQTLTLTCTFSGFSLSTSGVGVVWIRQPPGKALEWLALIYWNDHKRYSPSLGSRLTITKDTSKNQVVLTMTNMDPVDTATYYCAHYSGSYSYYYYGLDVWGQGTTVTVSS VL: DIQMTQSPSSVSASVGDRVTITCRASQGIASWLAWYQQKPGKAPELLIYAASSLQGGVPSRFSGSGSGTDFTLTISSLQPEDFAIYYCQQANYFPWTFGQGTKVEIKR | 174 min | 71.2 min |
| 12798B anti-hTfR monoclonal antibody (bivalent IgG1) (antibody, V domains shown, hIgG1/kappa; also called H1H12798B; REGN17507) VH: EVQLVESGGDLVQPGRSLRLSCAASGFTFDDYAMHWVRQAPGKGLEWVSGISWNSATRVYADSVKGRFTISRDNAKNFLYLQMNSLRSEDTALYHCAKDMDISLGYYGLDVWGQGTTVTVSS VL: not shown | 183 min | 9 min |
| 69323 anti-hTfR monoclonal antibody (bivalent IgG1) (antibody, V domains shown, hIgG1/kappa) VH: EVQLVESGGGLVQPGRSLRLSCAASGFTFDDYAMHWVRQAPGKGLEWVSGISWNSGYIGYADSVKGRFTISRDNAENSLHLQMNSLRAEDTALYYCARGGSTLVRGVKGGYYGMDVWGQGTTVTVSS VL: not shown | 64.1 min | 1.1 min |
| 69340 anti-hTfR monoclonal antibody (bivalent IgG1) (antibody, V domains shown, hIgG1/kappa) VH: EVQLVESGGGLVQPGRSLRLSCAASGFTFDDKAMHWVRQVPGKGLEWISGISWNSGTIGYADSVKGRFIISRDNAKNSLYLQMNSLRAEDTALYYCAKDGDTSGWYWYGLDVWGQGTTVTVSS VL: EIVLTQSPATLSLSPGERATLSCRASQSVSSYLAWYQQKPGQAPRLLIHDVSNRATGIPARFSGSGSGTDFTLTISSLEPEDFVVYYCQQRSDWPITFGQGTRLEIKR | 185 min | 16 min |
| 12833B anti-hTfR monoclonal antibody (bivalent IgG1) (antibody, V domains shown, hIgG1/kappa) VH: QVQLVESGGGVVQPGRSLRLSCAASGFTFSSFGMHWVRQAPGKGLEWVIFISYDGSDKYYADSVKGRFAISRDSSKNTLYLQMNSLRAEDTAVYYCAKENGILTDSYGMDVWGQGTTVTVSS VL: not shown | 45.9 min | 23.8 min |
| 69348 anti-hTfR monoclonal antibody (bivalent IgG1) (antibody, V domains shown, hIgG1/kappa) VH: QVQLVESGGGVVQPGRSLRLSCAASGFTFTTYGMHWVRQAPGKGLEWVAVIWYDGSNKYYGDSVKGRFTISRDNSKNTLYLQMNSLRVDDTAVYYCTRTHGYTRSSDGFDYWGQGTLVTVSS VL: DIQMTQSPSSLSASVGDRVTITCRASQSIRNVLGWFQQKPGKAPQRLIYAASSLQSGVPSRFSGSGSGTEFTLTISSLQPEDFATYYCLQHNFYPLTFGGGTKVEIKR | 67.2 min | 25.1 min |
| 12795B anti-hTfR monoclonal antibody (bivalent IgG1) (antibody, V domains shown, hIgG1/kappa) VH: EVQLVESGGGLVQPGGSLRLSCATSGFTFTSYDMKWVRQAPGLGLEWVSAISGSGGNTYYADSVKGRFTISRDNSRNTLYLQMNSLRAEDTAVYYCTRSHDFGAFDYFDYWGQGTLVTVSS VL: DIQMTQSPSSLSASVGDRVTITCRASQGIRDHFGWYQQKPGKAPKRLIYAASSLHSGVPSRFSGSGSGTEFTLTISSLQPEDFATYYCLQYDTYPLTFGGGTKVEIKR | > 1160 min | 162 min |
| 12845B anti-hTfR monoclonal antibody (bivalent IgG1) (antibody, V domains shown, hIgG1/kappa; also called H1H12845B; REGN17513) VH: EVQLVESGGGLVQPGGSLRLSCAASGFTVSNYEMNWVRQAPGKGLEWVSYISSSTSNIYYADSVKGRFTISRDNAENSLYLQMNSLRVEDTAVYYCVRDGIVVVPVGRGYYYYGLDVWGQGTTVTVSS VL: not shown | 57.9 min |  |
| 69307 anti-hTfR monoclonal antibody (bivalent IgG1) (antibody, V domains shown, hIgG1/kappa) VH: EVQLVESGGGLVQPGGSLRLSCTASGFTFSNYWMTWVRQAPGKGLEWVANIKEDGSEKEYVDSVKGRFTISRDNAKNSLYLQMNSLRGEDTAVYYCARDGEQLVDYYYYYVMDVWGQGTTVTVSS VL: DIQMTQSPSSVSASVGDRVTITCRASQGISSWLAWYQQKPGKAPKLLIYAASSLQSGVPSRFSGSGSGTDFTLTISSLQPEDFATYYCQKADSLPYAFGQGTKLEIKR | 271 min |  |
| 12812B anti-hTfR monoclonal antibody (bivalent IgG1) (antibody, V domains shown, hIgG1/kappa; also called H1H12812B; REGN17708) VH: QVQLVQSGAEVKKPGSSVRVSCKASRGTFSSYAISWVRQAPGQGLEWMGGIIPIFGTANYAQKFLARVTITADESTSTAYMELSSLRSEDTAVYYCAREKGWNYFDYWGQGTLVTVSS VL: DIQMTQSPPSVSASVGDRVTITCRASQGISSWLAWYQQKPGKAPKLLIYAASSLQSGVPSRFSGSGSGTDFTLTISSLQPEDFATYYCQQANSFPRTFGQGTKVEIKR | 8.8 min |  |
| 69329 anti-hTfR monoclonal antibody (bivalent IgG1) (antibody, V domains shown, hIgG1/kappa) VH: EVQLVESGGGLVQPGGSLRLSCAASGFTFSNYWMTWVRQAPGKGLEWVANIKEDGSEKDYVDSVKGRFTISRDNAKNSLYLQMNSLRGEDTAVYYCARDGEQLVDYYYYYVMDVWGQGTTVTVSS VL: DIQMTQSPSSVSASVGDRVTITCRASQGISSWLAWYQQKPGKAPKLLIYAASSLQSGVPSRFSGSGSGTDFTLTISSLQPEDFATYYCQKANSFPYTFGQGTKLEIKR | 62.2 min |  |
| 31863B anti-hTfR monoclonal antibody (bivalent IgG1) (antibody, V domains shown, hIgG1/kappa) VH: EVQLVESGGGLVQPGGSLRLSCAASGFTFNSYAMTWVRQAPGKGLEWVSFIGGSTGNTYYAGSVKGRFTISSDNSKKTLYLQMNSLRAEDTAVYYCAKGGAARRMEYFQHWGQGTLVTVSS VL: DIQMTQSPSSLSASIGDRVTITCRASQGISNYLAWYQQKPGKVPKLLIYAASTLQSGVPSRFSGSGSGTDFTLTISSLQPEDVATYYCQNHNSVPLTFGGGTKVEIKR | > 1160 min | 3.9 min |
| 69331 anti-hTfR monoclonal antibody (bivalent IgG1) (antibody, V domains shown, hIgG1/kappa) VH: QVQLVESGGGVVQPGRSLRLSCIASGFTFSVYGIHWVRQAPGKGLEWMAVISHDGNIKHYADSVKGRFTISRDNSKNTLYLQINSLRTEDTAVYYCAKDTWNSLDTFDIWGQGTMVTVSS VL: DIQLTQSPSSLSASVGDRVTITCWASQGISSYLAWYQQKPGKAPKLLIYAASTLQSGVPSRFSGSGSGTEFTLTISSLQPEDFATYYCQQLNSYPLTFGGGTKVEIKR | 2.5 min | 1.2 min |
| 31874B anti-hTfR monoclonal antibody (bivalent IgG1) (antibody, V domains shown, hIgG1/kappa; also called H1H31874B; REGN17517) VH: EVQLVESGGGLVQPGGSLRLSCAASGFAFSSYAMTWVRQAPGKGLEWVSVISGTGGSTYYADSVKGRFTISRDNSKNTLYLQMNSLRAEDTAVYYCAKGGAARRMEYFQYWGQGTLVTVSS VL: DIQMTQSPSSLSASVGDRVTITCRASQGISNYLAWYQQKPGKVPNLLIYAASTLQSGVPSRFSGSGSGTDFTLTISSLQPEDVATYYCQKYNSAPLTFGGGTKVEIKR | 100 min | 1.2 min |
| 69263 anti-hTfR monoclonal antibody (bivalent IgG1) (antibody, V domains shown, hIgG1/kappa) VH: EVQLVESGGGLVQPGRSLRLSCAVSGFTFDDYAMHWVRQAPGKGLEWVSGISWNSGTRGYADSVKGRFTISRDNAKNSLYLQMNSLRGEDTALYYCVKDITISPNYYGMDVWGQGTTVTVSS VL: DIQMTQSPSSLSASVGDRVTITCRASQDISHYSAWYQQKPGKLPNLLIYAASTLQSGVPSRFSGSGSGTDFSLTTSSLQPEDVATYYCQKYNSVPLTFGGGTKVEIKR | 10 min | 3.1 min |
| 12816B anti-hTfR monoclonal antibody (bivalent IgG1) (antibody, V domains shown, hIgG1/kappa) VH: QVQLVESGGGLVKPGGSLRLSCAASGFTFSDYYMNWIRQAPGKGLEWVSYISSSGTTIYYADSVKGRFTISRDNAKKSLYLEMNSLRAEDTAVYYCAREGYGNDYYYYGIDVWGQGTTVTVSS VL: not shown | 34.3 min | 23.8 min |
| 69261 anti-hTfR monoclonal antibody (bivalent IgG1) (antibody, V domains shown, hIgG1/kappa) VH: QVQLVESGGGLVKPGGSLRLSCAASGFTFSVYYMNWIRQAPGKGLEWVSYISSSGSTIYYADSVKGRFTISRDNAKNSLYLQMNSLRAEDTAVYYCGREGYSGTYSYYGMDVWGQGTTVTVSS VL: not shown | 143 min | 28.7 min |
| 12850B anti-hTfR monoclonal antibody (bivalent IgG1) (antibody, V domains shown, hIgG1/kappa; also called H1H12850B; REGN17516) VH: QVQLVQSGAEVKKPGSSVKVSCKASGGTFNTYAITWVRQAPGQGLEWMGGIIPISGIAEYAQKFQGRVTITTDDSSTTAYMELNSLRSEDTAVYYCASWNYALYYFYGMDVWGRGTTVTVSS VL: not shown | 657 min | 7.3 min |
| 69326 anti-hTfR monoclonal antibody (bivalent IgG1) (antibody, V domains shown, hIgG1/kappa) VH: EVQLVESGGGLVQPGGSLRLSCAVSGFIFSSYEMNWVRQAPGKGLEWVSYISSSGSTIFYADSVKGRFTISRDNAKNSLYLQMNSLRAEDTAVYYCVSGVVLFDVWGQGTMVTVSS VL: EIVMTQSPATLSVSPGERATLSCRASQSVSSNFAWYQQKPGQAPRLLIYSASSRATGIPVRFSGSGSGTEFTLTISSLQSEDFAVYYCQQYNIWPRTFGQGTKVEIKR | 45.1 min |  |
